From patent US12723078 (University of Texas, dated 2026) come the findings set out here.

In experiment [1] the target is T1, recombinant LILRB1 (human, UniProt Q8NHL6 24-461).
T1 construct: LILRB1-Fc proteins were also made; also called LILRB1 recombinant proteins
Kind of experiment: ELISA, coated recombinant LILRB1, antibody titration. (ELISA stands for enzyme-linked immunosorbent assay.)
Procedure: ELISA. LILRB1 recombinant proteins (50 ng/well, 100 μL per well) were coated on Corning 96-well ELISA plates at 37° C. for 4 hrs. Plates were blocked for 2 hrs at 37° C. with 5% non-fat milk. After washing with PBST, 100 μL of serial diluted anti-LILRB1 antibodies were added and incubated for 60 min at 37° C. […] Plates were washed again with PBST for another 5 times, then the immunoreactions were developed with TMB substrates (Sigma, Cat #T0440) and stopped by the addition of 2 M H_2SO_4 before the plate was read at 450 nm.

Experiment [2] addresses T1, recombinant LILRB1. The experiment is described as follows: BLI (Octet RED96), antibody on biosensor, recombinant LILRB1 in solution.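 Note: Background-subtracted sensorgrams fitted with a one-to-one binding model, KD taken as koff over kon.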
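Throughout, for EC50: serially diluted anti-LILRB1 antibodies incubated 60 min at 37 °C on plates coated with 50 ng/well recombinant protein, TMB colorimetric development read as absorbance at 450 nm.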
Procedure: Following a short baseline in kinetics buffer for 20 s, the loaded biosensors were exposed to solutions of recombinant LILRB1 in a range of concentrations (0-500 nM). After background was subtracted, data was fit to a 1:1 binding model to extract an association rate ($kon$) and dissociation rate ($koff$). The KD was calculated using the ratio $koff/kon$. […] All experiments were performed with shaking at 1,000 rpm. All raw data was processed using ForteBio Octet Data Analysis Software 9.0.

T1 sequence (Q8NHL6 24-461 limits assumed): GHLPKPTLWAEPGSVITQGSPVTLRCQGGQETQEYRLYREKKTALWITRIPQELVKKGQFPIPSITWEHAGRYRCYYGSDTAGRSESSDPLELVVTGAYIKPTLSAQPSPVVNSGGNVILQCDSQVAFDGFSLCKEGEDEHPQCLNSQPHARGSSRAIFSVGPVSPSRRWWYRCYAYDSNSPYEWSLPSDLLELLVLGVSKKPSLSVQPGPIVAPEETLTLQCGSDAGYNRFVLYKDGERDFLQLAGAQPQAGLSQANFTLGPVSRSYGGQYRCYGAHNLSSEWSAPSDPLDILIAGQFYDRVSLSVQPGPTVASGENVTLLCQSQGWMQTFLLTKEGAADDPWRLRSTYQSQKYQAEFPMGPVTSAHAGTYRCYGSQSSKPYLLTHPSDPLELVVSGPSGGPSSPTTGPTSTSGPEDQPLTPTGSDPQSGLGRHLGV

B1: B1-#72-1 (antibody, V domains shown)
VH: QSVKESGGGLVQPEGSLALTCKASGIDLSNYWYMCWVRQAPGKGLEWIGCVATDSSRTHYATWAKGRFTVSKTSSTTVTLQMTSLTAADTATYFCARGSGASTNGVWWVMGDGMDLWGPGTLVTISS
VL: ELVMTQTPSSVSAAVGGTVTIKCQASPSISTYLSWYQQKPGQPPKRLINRASTLASGVPPRFKGSGAGTQFTLTISDLECADAATYYCQNNYHSGSSNGGGVAFGGGTEVEIK
notes: recombinant rabbit IgG
In general, EC50 refers to the concentration that produces a half-maximal response. As usually defined, the Kd is the free concentration of one partner at which half of the binding sites on the other are occupied at equilibrium, for simple one-to-one binding. One may read the koff as the rate constant with which the complex falls apart. The kon is the rate constant with which the complex forms. As for B1, the concentration for a half-maximal effect (EC50) with recombinant LILRB1 [1] was determined as 0.011 µg/mL. For the same molecule, in the experiment with recombinant LILRB1 [2], the Kd is 3.14 nM, the koff is 0.000237 s⁻¹ and the association rate constant (kon) was 75700 M⁻¹ s⁻¹.

B2: B1-#74 (antibody, V domains shown)
VH: QSLEESGGGLVKPGASLTLTCTASGFSLNRYYMCWVRQAPGKGLEWIGCIYSGSGSTYYASWAKGRFTISKTSSTTVTLQMTSLPAADTATYFCGRLDYRVIYAFNLWGPGTLVTISS
VL: ELVLTQTPASVSAAVGGTVTINCQASQSIGSGNLAWYQQKPGQPPKLLIYLASTLASGVPPRFKGSGSGTEFTLTISDLECDDAATYYCQYTYYGTTYDNAFGGGTELEIK
notes: recombinant rabbit IgG
As for B2, the EC50 with recombinant LILRB1 [1] was determined as 0.13 µg/mL. Moreover, in the experiment with recombinant LILRB1 [2], the Kd amounted to 16.1 nM, the koff came out at 0.00145 s⁻¹ and the kon turned out to be 89900 M⁻¹ s⁻¹.

B3: B1-#110 (antibody, V domains shown)
VH: QSLEESGGDLVKPEGSLTLTCTASGFSFSSSYWICWVRQAPGKGLEWIGCIYAGNSANTYYASWAKGRFTISKTSSTTVTLQLTSLTAADTATYFCASRNGGAPDGLNLWGPGTLVTISS
VL: ELDLTQTPASVEAAVGGTVTIKCQASLNINSWLAWYQQKPGQPPKLLISYTSSLASGVPSRFKGSGSGTEYTLTINDLECADAATYYCQTTYFGTNGGGFGGGTEVEIK
notes: recombinant rabbit IgG
As for B3, the half-maximal effective concentration (EC50) in the experiment with recombinant LILRB1 [1] came to 0.0178 µg/mL.

B4: B1-#173-2 (antibody, V domains shown)
VH: QSVEESGGDLVKPGASLTLTCTASGFDFSSNAYLCWVRQAPGKGLEWIGCIYDGTSGDTYYANWAKGRFTISRSSSTTVTLQMTSLTAADTATYFCARDTRSSNYYFNLWGPGTLVTISS
VL: ELVLTQTPSSTSAAVGGTVTINCQASQSVDNNKQLSWYQQKPGQPPKQLIYSASKLASGVPSRFKGSGSGTQFTLTISDLECDDAATYYCAGYYYSGSATDAWAFGGATEVEIN
notes: recombinant rabbit IgG
B4: the EC50 with recombinant LILRB1 [1] was determined as 0.00656 µg/mL. Also, in the experiment with recombinant LILRB1 [2], the dissociation constant Kd was 1.37 nM, the koff was determined as 0.000262 s⁻¹ and the on-rate (kon) was determined as 192000 M⁻¹ s⁻¹.

B5: B1-#41-1 (antibody, V domains shown)
VH: QSVKESGGDLVKPGASLTLTCTASGFSFSSSYWICWVRQAPGKGLEWIACIYAGSSGSTYYASWAKGRFTISKTSSTTVTLQMTSLTAADTATYFCARSTSGSYGAGLGLWGPGTLVTISS
VL: ELDMTQTASPVSGAVGGTVTIKCQASQNIYNNIGWYQQKPGQPPNLLIYGPSYLASGVPSRFKGSRSGTEYTLTISDLECADAATYYCQSDDWMSISPDIVFGGGTEVEIK
notes: recombinant rabbit IgG
Take B5: the EC50 with recombinant LILRB1 [1] is 0.0944 µg/mL. In the experiment with recombinant LILRB1 [2], the dissociation constant (Kd) was 15.8 nM, the koff came out at 0.00506 s⁻¹ and the association rate constant (kon) worked out at 320000 M⁻¹ s⁻¹.

B6: B1-#176 (antibody, V domains shown)
VH: QSLEESEGGLVKPGGTLTLTCTASGFSFSSSYCMCWVRQAPGKGLELIACIYTDSSGATYYASWAKGRFTISKSSSTTITLQMTSLTAADTATYFCARGWDYEDPGYTDTTYFSLWGPGTLVTVSS
VL: ELDLTQTPSSVEAAVGGTVTIKCQASQTIYTNLAWYQQKPGQPPNLLIYAASTLASGVSSRFKGSGSGTEFTLTISDLECADAATYYCQSYYGSSTTGNGFGGGTEVEIK
notes: recombinant rabbit IgG
For B6, the EC50 in the experiment with recombinant LILRB1 [1] was 0.00224 µg/mL. For the same molecule, in the experiment with recombinant LILRB1 [2], the equilibrium dissociation constant (Kd) worked out at 0.619 nM, the koff worked out at 5.59e-05 s⁻¹ and the on-rate constant (kon) turned out to be 90300 M⁻¹ s⁻¹.

B7: B1-#3 (antibody, V domains shown)
VH: QSLEESEGDLVKPEGSLTLTCKASGFDFSSDAMCWVRQAPGKGLEWIGCIYNGDEITDHASWAKGRFTISKTSPTTVTLQMTSLTVADTATYFCARAVYSDGGAGYPYMYGMDLWGPGTLVTVSS
VL: ELDMTQTPASVEAAVGGTVTIKCQASQNIYSYLVWYQQKPGQPPKLLISKASTLASGVSSRFKGSGSGTEFTLTINDLECADAATYYCQTNYFSSTSHFGVFTFGGGTELEIK
notes: recombinant rabbit IgG
As to B7, the EC50 in the experiment with recombinant LILRB1 [1] was determined as 0.0119 µg/mL. Moreover, in the experiment with recombinant LILRB1 [2], the dissociation constant Kd came to 0.505 nM, the koff turned out to be 5.63e-05 s⁻¹ and the kon was 112000 M⁻¹ s⁻¹.
